Results reported in patent publication US20240392003A1 (NUMAB THERAPEUTICS, published 2024).
Numbering of substitutions follows the chain as printed. Numbers in names are those of the source. Read-outs that look alike come from different tables or passages of the source. Blank lines part the entries; values can stand above or below the binder they belong to.

How the values were obtained:
[1] = molecular target: T1, human serum albumin (Sigma-Aldrich A3782) (human, UniProt P02768 25-609); test: SPR; hSA immobilized, pH 5.5
T1 construct: also called hSA; HSA

[2] = molecular target: T2, recombinant human ROR1 protein (Fc-Tag, Acro Biosystems RO1-H5250) (human, UniProt Q01973 30-406); test: SPR; hROR1-Fc immobilized
T2 construct: Bought; also called hROR1; recombinant human ROR1 ECD; not shown: Fc tag

[3] = molecular target: T3, human ROR1 expressed on cells (human, UniProt Q01973 30-937); test: flow cytometry, MDA-MB-231 cells
T3 construct: whole, on cells; One molecule for cell-surface ROR1 on all cell lines; the cell line is named under assay; also called hROR1; plasma membrane human ROR1

[4] = molecular target: T3, human ROR1 expressed on cells; test: cell-based or functional assay
[5] = molecular target: T2, recombinant human ROR1 protein (Fc-Tag, …); test: SPR; hROR1-Fc immobilized; remark: listed apart in the source
[6] = molecular target: T4, recombinant human CD3 epsilon extra-cellular domain protein (His-Tag, SinoBiological) (human, UniProt P07766 23-126); test: SPR; hCD3ε immobilized, two-state fit
T4 construct: extracellular domain; Bought; also called hCD3ε; human CD3ε; not shown: His tag

[7] = molecular target: T4, recombinant human CD3 epsilon …; test: SPR; hCD3ε immobilized, two-state fit (ka1)
[8] = molecular target: T4, recombinant human CD3 epsilon …; test: SPR; hCD3ε immobilized, two-state fit (kd1)
[9] = molecular target: T3, human ROR1 expressed on cells; test: flow cytometry, MDA-MB-231 cells, 1 mg/ml hSA
[10] = molecular target: T2, recombinant human ROR1 protein (Fc-Tag, …); test: SPR; hROR1-Fc immobilized (Avidity)
[11] = molecular target: T4, recombinant human CD3 epsilon …; test: SPR; hCD3ε immobilized, two-state fit; remark: listed apart in the source
[12] = molecular target: T4, recombinant human CD3 epsilon …; test: SPR; hCD3ε immobilized, two-state fit (Ka1)
[13] = molecular target: T4, recombinant human CD3 epsilon …; test: SPR; hCD3ε immobilized, two-state fit (kd1); remark: listed apart in the source
[14] = molecular target: T5, human ROR1 (Peprotech 160-054) (human, UniProt Q01973 30-406); test: SPR; MATCH4 captured, hROR1 analyte (Affinity)
T5 construct: Bought, used as analyte; also called hROR1; recombinant human ROR1 protein

B1: PRO2558 (bispecific antibody)
chain: AFELTQSPSSLSASVGDRVTITCQASESINSRLAWYQQKPGQPPKLLIYDASDLTSGVPSRFSGSGSGTDFTLTISSLQPEDFATYYCQGYGGSSTTTFGCGTKLTVLGGGGGSEVQLVESGGGLVQPGGSLRLSCAASGFSLSSYDMSWVRQAPGKGLAWIGASYASGPTYYASWAKGRFTISRDNSKNTVYLQMNSLRAEDTATYFCARGGWTGTSHSNIWGQGTLVTVSSGGGGSGGGGSGGGGSGGGGSDIQMTQSPSSLSASVGDRVTITCQSSQSVFSNNYLAWFQQKPGQSPKRLIYSASTLASGVPSRFSGSGSGTDFTLTISSLQPEDFATYYCLGSYACSSADCYVFGTGTKVTVLGGGGGSEVQLVESGGGLVQPGGSLRLSCAASGFSLSSYAMNWVRQAPGKCLEWIGHINAGDIAYYATWAKGRFTISRDNSKNTVYLQMNSLRAEDTAVYFCARGAGGFSTGPFKLWGQGTLVTVSS
modifications: Interdomain disulfide in the hSA domain (VH G51C / VL G141C, AHo numbering).
notes: also called 19-04-A10-sc06 scDb-o/28-21-D09-sc04 scDb-i/56-22-A05-sc02 scFv; not shown: C-terminal 56-22-A05-sc02 scFv and the linker leading to it
- Kd [1]: 4.4 nM
- koff [1]: 0.002 s⁻¹
- kon [1]: 460000 M⁻¹ s⁻¹

B2: PRO2292 (scFv, V domains shown)
VH: QSQLVESGGGLVQPGGSLRLSCAVSGLSLSRNAMSWVRQAPGKCLEWIGIILTSGSTYYASWAKGRFTISKDNSKNTVYLQMNSLRAEDTAVYFCVRGIASSSLKSFWGQGTLVTVSS
VL: AQQLTQSPSSLSASVGDRVTITCQASQNVWNNNYLSWFQQKPGKPPKLLIVTASTLASGVSSRFSGSGSGTDFTLTISSLQPEDFATYYCAGGFSGEIRAFGCGTKVTVLG
notes: scFv, PRO2062 with VL-VH interdomain disulfide (AHo 141VL-51VH); also called 55-39-G02-sc05
- Kd [2]: 0.0906 nM
- koff [2]: 0.000616 s⁻¹
- kon [2]: 6.8e+06 M⁻¹ s⁻¹
- EC50 [3]: 0.27 nM
- Rel. maximum binding (MFIscFv/MFIPRO2213) [3]: 1.18

B5: PRO2667 (bispecific antibody)
chain: AFELTQSPSSLSASVGDRVTITCQASESINSRLAWYQQKPGQPPKLLIYDASDLTSGVPSRFSGSGSGTDFTLTISSLQPEDFATYYCQGYGGSSTTTFGCGTKLTVLGGGGGSEVQLVESGGGRVQPGGSLRLSCAASGFSLSSYDMSWVRQAPGKGLAWIGASYASGPTYYASWAKGRFTISRDNSKNTVYLQMNSLRAEDTATYFCARGGWTGTSHSNIWGQGTQVTVSSGGGGSGGGGSGGGGSGGGGSDIQMTQSPSSLSASVGDRVTITCQSSQSVFSNNYLAWFQQKPGQSPKRLIYSASTLASGVPSRFSGSGSGTDFTLTISSLQPEDFATYYCLGSYACSSADCYVFGTGTKVTVLGGGGGSEVQLVESGGGRVQPGGSLRLSCAASGFSLSSYAMNWVRQAPGKCLEWIGHINAGDIAYYATWAKGRFTISRDNSKNTVYLQMNSLRAEDTATYFCARGAGGFSTGPFKLWGQGTQVTVSSGGGGSGGGGSDVQMTQSPSSLSASVGDRVTITCRASENIYSGLAWYQQKPGKPPKLLIYRASTLASGVSSRFSGSGSGTDFTLTISSLQPEDFATYYCQGGYYSSSSTYIAFGTGTKVTVLGGGGGSGGGGSGGGGSGGGGSQSQVVESGGGRVQPGGSLRLSCAVSGFDLSSYAVSWVRQAPGKGLEWIGIIYPRANTYYASWAKGRFTISKDNSKNTVYLQMNSLRAEDTATYFCARDRYDSGAYLYTTYFNLWGQGTQVTVSS
notes: trispecific anti-ROR1 x hSA x CD3 scMATCH3, single chain, modified VH domains; also called 19-04-A10-sc06(RTQ) scDb-o/28-21-D09-sc04 (RTQ) scDb-i/55-38-D07-sc02(RTQ)-scFv
- Kd [5]: 0.97 nM
- koff [5]: 9.2e-05 s⁻¹
- kon [5]: 95000 M⁻¹ s⁻¹
- Kd [6]: 4.4 nM
- ka2 [6]: 0.0045 s⁻¹
- kd2 [6]: 0.0061 s⁻¹
- kon [7]: 540000 M⁻¹ s⁻¹
- koff [8]: 0.0041 s⁻¹

The next lines start with results.

- Kd [2]: 1.12 nM
- koff [2]: 0.000302 s⁻¹
- kon [2]: 269000 M⁻¹ s⁻¹
- EC50 [3]: 2.74 nM
- Rel. maximum binding (MFIscFv/MFIPRO2213) [3]: 1.18
B3: PRO2291 (scFv, V domains shown)
VH: QSQVVESGGGLVQPGGSLRLSCAVSGFDLSSYAVSWVRQAPGKCLEWIGIIYPRANTYYASWAKGRFTISKDNSKNTVYLQMNSLRAEDTAVYFCARDRYDSGAYLYTTYFNLWGQGTLVTVSS
VL: DVQMTQSPSSLSASVGDRVTITCRASENIYSGLAWYQQKPGKPPKLLIYRASTLASGVSSRFSGSGSGTDFTLTISSLQPEDFATYYCQGGYYSSSSTYIAFGCGTKVTVLG
notes: scFv, PRO2060 with VL-VH interdomain disulfide (AHo 141VL-51VH); also called 55-38-D07-sc06

- Kd [5]: ≤ 0.13 nM
- koff [5]: < 1e-05 s⁻¹
- kon [5]: 76000 M⁻¹ s⁻¹
- Kd [6]: 8.5 nM
- ka2 [6]: 0.0068 s⁻¹
- kd2 [6]: 0.0074 s⁻¹
- kon [7]: 380000 M⁻¹ s⁻¹
- koff [8]: 0.0062 s⁻¹
- EC50 [9]: 18.7 nM
- Rel. maximum binding (MFIscMATCH3/MFIPRO2213) [9]: 3
B4: PRO2508 (bispecific antibody)
chain: B5 chain with R125L, Q228L, R383L, T464V, Q487L, T606C, R645L, G678C, T726V, Q753L
notes: trispecific anti-ROR1 x hSA x CD3 scMATCH3, single chain; also called 19-04-A10-sc06 scDb-o/28-21-D09-sc04 scDb-i/55-38-D07-sc06-scFv
- EC50 (nM) Cytotoxicity (MDA-MB-231) [4]: 1.7 nM

- Kd [10]: 0.026 nM
- koff [10]: 2.6e-05 s⁻¹
- kon [10]: 1e+06 M⁻¹ s⁻¹
- Ka2 [11]: 0.0056 s⁻¹
- Kd [11]: 2.7 nM
- Kd2 [11]: 0.0047 s⁻¹
- kon [12]: 810000 M⁻¹ s⁻¹
- koff [13]: 0.0047 s⁻¹
- Kd [14]: ≤ 0.177 nM
- koff [14]: < 1e-05 s⁻¹
- kon [14]: 56600 M⁻¹ s⁻¹
B6: PRO2669 (bispecific antibody)
chain 1: DVQMTQSPSSLSASVGDRVTITCRASENIYSGLAWYQQKPGKPPKLLIYRASTLASGVSSRFSGSGSGTDFTLTISSLQPEDFATYYCQGGYYSSSSTYIAFGTGTKVTVLGGGGGSGGGGSGGGGSGGGGSQSQVVESGGGRVQPGGSLRLSCAVSGFDLSSYAVSWVRQAPGKGLEWIGIIYPRANTYYASWAKGRFTISKDNSKNTVYLQMNSLRAEDTATYFCARDRYDSGAYLYTTYFNLWGQGTQVTVSSGGGGSGGGGSAFELTQSPSSLSASVGDRVTITCQASESINSRLAWYQQKPGQPPKLLIYDASDLTSGVPSRFSGSGSGTDFTLTISSLQPEDFATYYCQGYGGSSTTTFGCGTKLTVLGGGSGGSDIQMTQSPSSLSASVGDRVTITCQSSQSVFSNNYLAWFQQKPGQSPKRLIYSASTLASGVPSRFSGSGSGTDFTLTISSLQPEDFATYYCLGSYACSSADCYVFGTGTKVTVLG
chain 2: DVQMTQSPSSLSASVGDRVTITCRASENIYSGLAWYQQKPGKPPKLLIYRASTLASGVSSRFSGSGSGTDFTLTISSLQPEDFATYYCQGGYYSSSSTYIAFGTGTKVTVLGGGGGSGGGGSGGGGSGGGGSQSQVVESGGGRVQPGGSLRLSCAVSGFDLSSYAVSWVRQAPGKGLEWIGIIYPRANTYYASWAKGRFTISKDNSKNTVYLQMNSLRAEDTATYFCARDRYDSGAYLYTTYFNLWGQGTQVTVSSGGGGSGGGGSEVQLVESGGGRVQPGGSLRLSCAASGFSLSSYDMSWVRQAPGKGLAWIGASYASGPTYYASWAKGRFTISRDNSKNTVYLQMNSLRAEDTATYFCARGGWTGTSHSNIWGQGTQVTVSSGGGSGGGSGGGSGEVQLVESGGGRVQPGGSLRLSCAASGFSLSSYAMNWVRQAPGKCLEWIGHINAGDIAYYATWAKGRFTISRDNSKNTVYLQMNSLRAEDTATYFCARGAGGFSTGPFKLWGQGTQVTVSS
notes: heterodimeric MATCH4, modified VH domains, variant of PRO2589; also called MATCH4 with 55-38-D07-sc02(RTQ) / 19-04-A10-sc02(RTQ) diS / 28-21-D09-sc04(RTQ) / 55-38-D07-sc02(RTQ)
